This passage reports Kd results from publication PMC9468113.

A word on the Kd: it is the concentration at which binding is half-saturated. Low readings indicate tighter binding, high ones weaker binding.

For the experiment, the target named is MST-Red-labeled human MIF (human) (UniProt P14174). Nature of the experiment: MST; Monolith NT.115, 25 °C; MST-Red-MIF at fixed concentration (312 nM with CXCL4L1, 456 nM with CXCL4) with serial dilutions of the chemokine; 10 mM Tris-HCl, pH 8.0, 0.01% BSA; both in solution.
Sequence of MST-Red-labeled human MIF (human) (P14174 2-115): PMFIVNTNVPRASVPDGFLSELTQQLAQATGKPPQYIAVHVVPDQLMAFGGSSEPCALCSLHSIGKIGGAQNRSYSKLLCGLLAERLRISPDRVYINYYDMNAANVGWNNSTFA

On to “recombinant human CXCL4 (PF4), Peprotech (from UniProt P02776 32-101) (natural protein)”, for which the Kd was found to be 2 µM.
